Numbered stars: 1 amine (or outer) side, 2 acyl side, 3 side chain; on linkers, the order of the positions; unused ones are H or OH. Square brackets hold non-standard residues; d marks the D form. Side chains are listed from the residue outwards. Ends that are not written are not given here. * marks the point of attachment. C18 diacid = O=C(O)CCCCCCCCCCCCCCCCC(=O)*; γGlu = O=C(O)[C@H](CCC(=O)[*:2])N[*:1]; AEEA = NCCOCCOCC(=O)O; Aib = CC(C)(N)C(=O)O
B1: N^ε16-[(4S)-4-carboxy-4-[[(4S)-4-carboxy-4-[[2-[2-[2-[[2-[2-[2-[[(4S)-4-carboxy-4-(17-carboxyheptadecanoylamino)butanoyl]amino]ethoxy]ethoxy]acetyl]amino]ethoxy … (peptide)
peptide: H[Aib]QGTFTSDLSKYLDK([γGlu-γGlu-AEEA-AEEA-γGlu-C18 diacid])RRARDFVQWLLST-NH2
modifications: N-terminus assumed
SMILES: CC(C)C[C@H](NC(=O)[C@H](Cc1ccc(O)cc1)NC(=O)[C@H](CCCCN)NC(=O)[C@H](CO)NC(=O)[C@H](CC(C)C)NC(=O)[C@H](CC(=O)O)NC(=O)[C@H](CO)NC(=O)[C@@H](NC(=O)[C@H](Cc1ccccc1)NC(=O)[C@@H](NC(=O)CNC(=O)[C@H](CCC(N)=O)NC(=O)C(C)(C)NC(=O)[C@@H](N)Cc1c[nH]cn1)[C@@H](C)O)[C@@H](C)O)C(=O)N[C@@H](CC(=O)O)C(=O)N[C@@H](CCCCNC(=O)CC[C@H](NC(=O)CC[C@H](NC(=O)COCCOCCNC(=O)COCCOCCNC(=O)CC[C@H](NC(=O)CCCCCCCCCCCCCCCCC(=O)O)C(=O)O)C(=O)O)C(=O)O)C(=O)N[C@@H](CCCNC(=N)N)C(=O)N[C@@H](CCCNC(=N)N)C(=O)N[C@@H](C)C(=O)N[C@@H](CCCNC(=N)N)C(=O)N[C@@H](CC(=O)O)C(=O)N[C@@H](Cc1ccccc1)C(=O)N[C@H](C(=O)N[C@@H](CCC(N)=O)C(=O)N[C@@H](Cc1c[nH]c2ccccc12)C(=O)N[C@@H](CC(C)C)C(=O)N[C@@H](CC(C)C)C(=O)N[C@@H](CO)C(=O)N[C@H](C(N)=O)[C@@H](C)O)C(C)C
B2: N^ε29-[(4S)-4-carboxy-4-[[(4S)-4-carboxy-4-[[2-[2-[2-[[2-[2-[2-[[(4S)-4-carboxy-4-(17-carboxyheptadecanoylamino)butanoyl]amino]ethoxy]ethoxy]acetyl]amino]ethoxy … (peptide)
peptide: H[Aib]QGTFTSDLSKYLDSRRARDFVQWLLSK([γGlu-γGlu-AEEA-AEEA-γGlu-C18 diacid])-NH2
modifications: N-terminus assumed
SMILES: CC(C)C[C@H](NC(=O)[C@H](CC(C)C)NC(=O)[C@H](Cc1c[nH]c2ccccc12)NC(=O)[C@H](CCC(N)=O)NC(=O)[C@@H](NC(=O)[C@H](Cc1ccccc1)NC(=O)[C@H](CC(=O)O)NC(=O)[C@H](CCCNC(=N)N)NC(=O)[C@H](C)NC(=O)[C@H](CCCNC(=N)N)NC(=O)[C@H](CCCNC(=N)N)NC(=O)[C@H](CO)NC(=O)[C@H](CC(=O)O)NC(=O)[C@H](CC(C)C)NC(=O)[C@H](Cc1ccc(O)cc1)NC(=O)[C@H](CCCCN)NC(=O)[C@H](CO)NC(=O)[C@H](CC(C)C)NC(=O)[C@H](CC(=O)O)NC(=O)[C@H](CO)NC(=O)[C@@H](NC(=O)[C@H](Cc1ccccc1)NC(=O)[C@@H](NC(=O)CNC(=O)[C@H](CCC(N)=O)NC(=O)C(C)(C)NC(=O)[C@@H](N)Cc1c[nH]cn1)[C@@H](C)O)[C@@H](C)O)C(C)C)C(=O)N[C@@H](CO)C(=O)N[C@@H](CCCCNC(=O)CC[C@H](NC(=O)CC[C@H](NC(=O)COCCOCCNC(=O)COCCOCCNC(=O)CC[C@H](NC(=O)CCCCCCCCCCCCCCCCC(=O)O)C(=O)O)C(=O)O)C(=O)O)C(N)=O
B3: N^ε28-[(4S)-4-carboxy-4-[[(4S)-4-carboxy-4-[[2-[2-[2-[[2-[2-[2-[[(4S)-4-carboxy-4-(17-carboxyheptadecanoylamino)butanoyl]amino]ethoxy]ethoxy]acetyl]amino]ethoxy … (peptide)
peptide: H[Aib]HGTFTSDLSKYLESKRAREFVQWLLK([γGlu-γGlu-AEEA-AEEA-γGlu-C18 diacid])T-NH2
modifications: N-terminus assumed
SMILES: CC(C)C[C@H](NC(=O)[C@H](Cc1ccc(O)cc1)NC(=O)[C@H](CCCCN)NC(=O)[C@H](CO)NC(=O)[C@H](CC(C)C)NC(=O)[C@H](CC(=O)O)NC(=O)[C@H](CO)NC(=O)[C@@H](NC(=O)[C@H](Cc1ccccc1)NC(=O)[C@@H](NC(=O)CNC(=O)[C@H](Cc1c[nH]cn1)NC(=O)C(C)(C)NC(=O)[C@@H](N)Cc1c[nH]cn1)[C@@H](C)O)[C@@H](C)O)C(=O)N[C@@H](CCC(=O)O)C(=O)N[C@@H](CO)C(=O)N[C@@H](CCCCN)C(=O)N[C@@H](CCCNC(=N)N)C(=O)N[C@@H](C)C(=O)N[C@@H](CCCNC(=N)N)C(=O)N[C@@H](CCC(=O)O)C(=O)N[C@@H](Cc1ccccc1)C(=O)N[C@H](C(=O)N[C@@H](CCC(N)=O)C(=O)N[C@@H](Cc1c[nH]c2ccccc12)C(=O)N[C@@H](CC(C)C)C(=O)N[C@@H](CC(C)C)C(=O)N[C@@H](CCCCNC(=O)CC[C@H](NC(=O)CC[C@H](NC(=O)COCCOCCNC(=O)COCCOCCNC(=O)CC[C@H](NC(=O)CCCCCCCCCCCCCCCCC(=O)O)C(=O)O)C(=O)O)C(=O)O)C(=O)N[C@H](C(N)=O)[C@@H](C)O)C(C)C
B4: N^ε28-[(4S)-4-carboxy-4-[[(4S)-4-carboxy-4-[[(4S)-4-carboxy-4-(17-carboxyheptadecanoylamino)butanoyl]amino]butanoyl]amino]butanoyl]-[Aib2,His3,Leu10,Glu15,Lys17 … (peptide)
peptide: H[Aib]HGTFTSDLSKYLESKRAREFVQWLLK([γGlu-γGlu-γGlu-C18 diacid])T-NH2
modifications: N-terminus assumed
SMILES: CC(C)C[C@H](NC(=O)[C@H](Cc1ccc(O)cc1)NC(=O)[C@H](CCCCN)NC(=O)[C@H](CO)NC(=O)[C@H](CC(C)C)NC(=O)[C@H](CC(=O)O)NC(=O)[C@H](CO)NC(=O)[C@@H](NC(=O)[C@H](Cc1ccccc1)NC(=O)[C@@H](NC(=O)CNC(=O)[C@H](Cc1c[nH]cn1)NC(=O)C(C)(C)NC(=O)[C@@H](N)Cc1c[nH]cn1)[C@@H](C)O)[C@@H](C)O)C(=O)N[C@@H](CCC(=O)O)C(=O)N[C@@H](CO)C(=O)N[C@@H](CCCCN)C(=O)N[C@@H](CCCNC(=N)N)C(=O)N[C@@H](C)C(=O)N[C@@H](CCCNC(=N)N)C(=O)N[C@@H](CCC(=O)O)C(=O)N[C@@H](Cc1ccccc1)C(=O)N[C@H](C(=O)N[C@@H](CCC(N)=O)C(=O)N[C@@H](Cc1c[nH]c2ccccc12)C(=O)N[C@@H](CC(C)C)C(=O)N[C@@H](CC(C)C)C(=O)N[C@@H](CCCCNC(=O)CC[C@H](NC(=O)CC[C@H](NC(=O)CC[C@H](NC(=O)CCCCCCCCCCCCCCCCC(=O)O)C(=O)O)C(=O)O)C(=O)O)C(=O)N[C@H](C(N)=O)[C@@H](C)O)C(C)C
B5: N^α-([Aib2,Leu10,Arg20,Leu27,Ser28]-Glucagonyl)-N{Epsilon}[(4S)-4-carboxy-4-[[(4S)-4-carboxy-4-[[2-[2-[2-[[2-[2-[2-[[(4S)-4-carboxy-4-(17-carboxyheptadecanoylam … (peptide)
peptide: H[Aib]QGTFTSDLSKYLDSRRARDFVQWLLSTK([γGlu-γGlu-AEEA-AEEA-γGlu-C18 diacid])-NH2
modifications: N-terminus assumed
SMILES: CC(C)C[C@H](NC(=O)[C@H](Cc1ccc(O)cc1)NC(=O)[C@H](CCCCN)NC(=O)[C@H](CO)NC(=O)[C@H](CC(C)C)NC(=O)[C@H](CC(=O)O)NC(=O)[C@H](CO)NC(=O)[C@@H](NC(=O)[C@H](Cc1ccccc1)NC(=O)[C@@H](NC(=O)CNC(=O)[C@H](CCC(N)=O)NC(=O)C(C)(C)NC(=O)[C@@H](N)Cc1c[nH]cn1)[C@@H](C)O)[C@@H](C)O)C(=O)N[C@@H](CC(=O)O)C(=O)N[C@@H](CO)C(=O)N[C@@H](CCCNC(=N)N)C(=O)N[C@@H](CCCNC(=N)N)C(=O)N[C@@H](C)C(=O)N[C@@H](CCCNC(=N)N)C(=O)N[C@@H](CC(=O)O)C(=O)N[C@@H](Cc1ccccc1)C(=O)N[C@H](C(=O)N[C@@H](CCC(N)=O)C(=O)N[C@@H](Cc1c[nH]c2ccccc12)C(=O)N[C@@H](CC(C)C)C(=O)N[C@@H](CC(C)C)C(=O)N[C@@H](CO)C(=O)N[C@H](C(=O)N[C@@H](CCCCNC(=O)CC[C@H](NC(=O)CC[C@H](NC(=O)COCCOCCNC(=O)COCCOCCNC(=O)CC[C@H](NC(=O)CCCCCCCCCCCCCCCCC(=O)O)C(=O)O)C(=O)O)C(=O)O)C(N)=O)[C@@H](C)O)C(C)C
B6: N^ε29-[(4S)-4-carboxy-4-[[(4S)-4-carboxy-4-[[2-[2-[2-[[2-[2-[2-[[(4S)-4-carboxy-4-(17-carboxyheptadecanoylamino)butanoyl]amino]ethoxy]ethoxy]acetyl]amino]ethoxy … (peptide)
peptide: H[Aib]QGTFTSDLSKYLDTRRAKDFVQWLLSK([γGlu-γGlu-AEEA-AEEA-γGlu-C18 diacid])-NH2
modifications: N-terminus assumed
SMILES: CC(C)C[C@H](NC(=O)[C@H](CC(C)C)NC(=O)[C@H](Cc1c[nH]c2ccccc12)NC(=O)[C@H](CCC(N)=O)NC(=O)[C@@H](NC(=O)[C@H](Cc1ccccc1)NC(=O)[C@H](CC(=O)O)NC(=O)[C@H](CCCCN)NC(=O)[C@H](C)NC(=O)[C@H](CCCNC(=N)N)NC(=O)[C@H](CCCNC(=N)N)NC(=O)[C@@H](NC(=O)[C@H](CC(=O)O)NC(=O)[C@H](CC(C)C)NC(=O)[C@H](Cc1ccc(O)cc1)NC(=O)[C@H](CCCCN)NC(=O)[C@H](CO)NC(=O)[C@H](CC(C)C)NC(=O)[C@H](CC(=O)O)NC(=O)[C@H](CO)NC(=O)[C@@H](NC(=O)[C@H](Cc1ccccc1)NC(=O)[C@@H](NC(=O)CNC(=O)[C@H](CCC(N)=O)NC(=O)C(C)(C)NC(=O)[C@@H](N)Cc1c[nH]cn1)[C@@H](C)O)[C@@H](C)O)[C@@H](C)O)C(C)C)C(=O)N[C@@H](CO)C(=O)N[C@@H](CCCCNC(=O)CC[C@H](NC(=O)CC[C@H](NC(=O)COCCOCCNC(=O)COCCOCCNC(=O)CC[C@H](NC(=O)CCCCCCCCCCCCCCCCC(=O)O)C(=O)O)C(=O)O)C(=O)O)C(N)=O
B7: N^ε29-[(4S)-4-carboxy-4-[[(4S)-4-carboxy-4-[[2-[2-[2-[[2-[2-[2-[[(4S)-4-carboxy-4-(17-carboxyheptadecanoylamino)butanoyl]amino]ethoxy]ethoxy]acetyl]amino]ethoxy … (peptide)
peptide: H[Aib]QGTFTSDLSKYLDERRAKDFVQWLLSK([γGlu-γGlu-AEEA-AEEA-γGlu-C18 diacid])-NH2
modifications: N-terminus assumed
SMILES: CC(C)C[C@H](NC(=O)[C@H](CC(C)C)NC(=O)[C@H](Cc1c[nH]c2ccccc12)NC(=O)[C@H](CCC(N)=O)NC(=O)[C@@H](NC(=O)[C@H](Cc1ccccc1)NC(=O)[C@H](CC(=O)O)NC(=O)[C@H](CCCCN)NC(=O)[C@H](C)NC(=O)[C@H](CCCNC(=N)N)NC(=O)[C@H](CCCNC(=N)N)NC(=O)[C@H](CCC(=O)O)NC(=O)[C@H](CC(=O)O)NC(=O)[C@H](CC(C)C)NC(=O)[C@H](Cc1ccc(O)cc1)NC(=O)[C@H](CCCCN)NC(=O)[C@H](CO)NC(=O)[C@H](CC(C)C)NC(=O)[C@H](CC(=O)O)NC(=O)[C@H](CO)NC(=O)[C@@H](NC(=O)[C@H](Cc1ccccc1)NC(=O)[C@@H](NC(=O)CNC(=O)[C@H](CCC(N)=O)NC(=O)C(C)(C)NC(=O)[C@@H](N)Cc1c[nH]cn1)[C@@H](C)O)[C@@H](C)O)C(C)C)C(=O)N[C@@H](CO)C(=O)N[C@@H](CCCCNC(=O)CC[C@H](NC(=O)CC[C@H](NC(=O)COCCOCCNC(=O)COCCOCCNC(=O)CC[C@H](NC(=O)CCCCCCCCCCCCCCCCC(=O)O)C(=O)O)C(=O)O)C(=O)O)C(N)=O

Experiments:
human GLP-1 receptor = human GLP-1 receptor (human, UniProt P43220 24-463); assay: cell-based or functional assay
human glucagon receptor = human glucagon receptor (human, UniProt P47871 26-477); assay: cell-based or functional assay
human glucagon receptor, sequence (P47871 26-477): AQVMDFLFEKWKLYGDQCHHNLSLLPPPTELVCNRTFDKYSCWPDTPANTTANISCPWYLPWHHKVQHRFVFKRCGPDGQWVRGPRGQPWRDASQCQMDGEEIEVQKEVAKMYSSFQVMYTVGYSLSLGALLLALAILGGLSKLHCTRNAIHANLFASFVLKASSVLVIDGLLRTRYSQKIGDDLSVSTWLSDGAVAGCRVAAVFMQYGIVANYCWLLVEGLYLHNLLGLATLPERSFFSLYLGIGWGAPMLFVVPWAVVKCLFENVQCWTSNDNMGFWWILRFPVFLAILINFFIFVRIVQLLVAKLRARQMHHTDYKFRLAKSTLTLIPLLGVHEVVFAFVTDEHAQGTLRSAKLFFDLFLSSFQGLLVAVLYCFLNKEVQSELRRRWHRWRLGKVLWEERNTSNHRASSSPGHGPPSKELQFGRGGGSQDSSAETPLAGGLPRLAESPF

| Binder | EC50 GLP-1R, CRE luciferase reporter gene assay in BHK cells (human GLP-1 receptor) [pM] | EC50 GlucR, CRE luciferase reporter gene assay in BHK cells (human glucagon receptor) [pM] |
| --- | --- | --- |
| B1 | 8 | 54 |
| B2 | 5 | 109 |
| B3 |  | 1.1 |
| B4 |  | 2.9 |
| B5 | 20 | 1210 |
| B6 | 15 | 672 |
| B7 | 6 | 1430 |

— patent US20150374794A1 (Novo Nordisk, published 2015)
